Laboratory results published in patent publication US20050196380A1, “Method for delivering therapeutic proteins to the intradermal compartment” (priority 2004, published 2005).

Tests used:
[1] = Bolus ID vs SC insulin in diabetic Yucatan Mini swine, serum insulin levels; format: in vivo; conditions: for PK profiles for regular and fast-acting insulin by the ID route / uptake by ID route compared with Lispro given by the traditional SC route: SS3_34
Description: Lilly Lispro is regarded as fast acting insulin, and has a slightly altered protein structure relative to native human insulin. Hoechst regular insulin, maintains the native human insulin protein structure that is chemically similar, but has slower uptake than Lispro when administered by the traditional SC route. Both insulin types were administered in bolus via the ID route to determine if any differences in uptake would be discernable by this route. 5 U of either insulin type were administered to the ID space using dermal access microdevice design SS3—34.
Thus, 5 U of Lilly Lispro fast-acting insulin was administered using dermal access design SS3—34. Additional microdevices of the same needle array configuration were fabricated whereby exposed needle lengths of the microdevice array, were lengthened to include arrays with needles lengths of 2 and 3 mm. The average total dermal thickness in Yucatan Mini swine ranges from 1.5-2.5 mm. Therefore insulin deposition is expected to be into the dermis, approximately at the dermal/SC interface, and below the dermis and within the SC for 1 mm, 2 mm, and 3 mm length needles respectively. Bolus insulin administration was as described in Example 6.2.
Bolus delivery of Lantus long-acting insulin was delivered via the ID route. Lantus is an insulin solution that forms microprecipitates at the administration site upon injection. […] Lantus insulin (10 U dose, 100 μL) was administered to diabetic Yucatan Mini pigs using the dermal access design SS3—34 and by the standard SC method as previously described. […] More importantly this supports the fact that the biological clearance mechanism in the body is not appreciably changed by the administration route, nor is the way in which that the drug substance is utilized. This is extremely important for drugs compounds that have a long circulating half-life (examples would be large soluble receptor compounds or other antibodies for cancer treatment, or chemically modified species such as PEGylated drugs).

blood glucose [2] = test: Slow-infusion ID insulin delivery in swine, blood glucose response; conditions: ID infusion 2 U/hr, relative to negative controls and SC infusion
Description: The distal end of the microneedle was placed into the plastic catheter and cemented in place with epoxy resin to form a depth-limiting hub. The needle outlet was positioned approximately 1 mm beyond the epoxy hub, thus limiting penetration of the needle outlet into the skin to approximately 1 mm, which corresponds to the depth of the intradermal space in swine. The catheter was attached to a MiniMed 507 insulin pump for control of fluid delivery. The distal end of the microneedle was placed into the plastic catheter and cemented in place with epoxy resin to form a death-limiting hub. The needle outlet was positioned approximately 1 mm beyond the epoxy hub, thus limiting penetration of the needle outlet into the skin to approximately 1 mm, which corresponds to the depth of the intradermal space in swine. […] The catheter was connected to an-external insulin infusion pump (MiniMed 507) via the integral Luer connection at the catheter outlet. The pump was filled with Humalog™ (Lispro) insulin (Eli Lilly, Indianapolis, Ind.) and the catheter and microneedle were primed with insulin according to the manufacturer's instructions. […] Blood samples were periodically withdrawn and analyzed for serum insulin concentration and blood glucose values.

blood glucose [3] = test: Bolus ID vs SC insulin in diabetic Yucatan Mini swine, blood glucose; conditions: bolus 10 U, 100 μL
Description: Bolus delivery of Lilly Lispro fast acting insulin was performed using ID and SC bolus administration. The ID injection microdevice was dermal access array design SS3—34.10 international insulin units (U) corresponding to 100 μL volume respectively, were administered to diabetic Yucatan Minis swine. Test animals had been previously been rendered diabetic by chemical ablation of pancreatic islet cells, and were no longer able to secrete insulin. Test animals received their insulin injection either via the microneedle array or via a standard 30 G×½ in. needle inserted laterally into the SC tissue space. Circulating serum insulin levels were detected using a commercial chemiluminescent assay kit (Immulite, Los Angeles, Calif.) and blood glucose values were determined using blood glucose strips. ID injections were accomplished via hand pressure using an analytical microsyringe and were administered over approximately 60 sec.

[4] = Slow-infusion ID vs SC insulin delivery in swine, serum insulin pharmacokinetics; format: in vivo
Description: Pharmacokinetic parameters of the delivered substances in accordance with the methods of the invention may be determined using methods known to one skilled in the art. An exemplary pharmacokinetic analysis of infusion data of a substance, e.g., insulin, delivered in accordance with the methods of the invention is carried out as follows. Stepwise nonlinear least-squares regression is used to analyze the insulin concentration-time data from each individual animal. Initially, an empirical biexponential equation is fit to the insulin concentration-time data for the negative control condition. This analysis assumes first-order release of residual insulin, and recovers parameters for the first-order rate constant for release, the residual insulin concentration at the release site, a lag time for release, and a first-order rate constant for elimination of insulin from the systemic circulation. The parameters recovered in this phase of the analysis are of no intrinsic importance, but merely account for the fraction of circulating insulin derived from endogenous sources.
The second step of the analysis involves fitting an explicit compartmental model to the insulin concentration-time data during and after subcutaneous or intradermal infusion. The scheme upon which the mathematical model is based is shown in the upper part of FIG. 1. Infusion of insulin proceeds from t=−0 to t=240-min; after a lag-time (tlag,2) absorption from the infusion site is mediated by a first-order process governed by the absorption rate constant ka. Insulin absorbes into the systemic circulation, distributes into an apparent volume V contaminated by an unknown fractional bioavailability F, and is eliminated according to a first-order rate constant K. The fitting routine recovered estimates of tlag,2, ka, V/F, and K; parameters associated with the disposition of endogenous insulin (CR, tlag,1, kR), which are recovered in the first step of the analysis, are treated as constants. Parameter estimates are reported as mean±SD. The significance of differences in specific parameters between the two different modes of insulin administration (subcutaneous versus intradermal infusion) are assessed with the paired Student's t-test.

[5] = ID vs SC infusion of PTH, weight normalized PTH plasma levels; format: in vivo
Description: An ID administration experiment was conducted using a peptide drug entity: human parathyroid hormone 1-34 (PTH). […] Control SC infusion was through a standard 31-gauge needle inserted into the SC space lateral to the skin using a “pinch-up” technique. ID infusion was through dermal access microdevice design SSB1—30 (a stainless steel 30-gauge needle bent at the tip at a 90° angle such that the available length for skin penetration was 1-2 mm). The needle outlet (the tip of the needle) was at a depth of 1.7-2.0 mm in the skin when the needle was inserted. A 0.64 mg/mL PTH solution was infused at a rate of 75 μL/hr. Flow rate was controlled via a Harvard syringe pump.

[6] = system: white blood cell (WBC) counts; test: White blood cell expansion after GCSF administration; format: in vivo, Yucatan minipigs; conditions: ID, SC and IV delivery vs negative control
Description: (§1) Bolus ID delivery of human granulocyte colony stimulating factor (GCSF) (Neupogen) was administered via dermal access microdevice designs SS3—34B (array) or SS1—34 (single needle) to Yucatan minipigs. Delivery rate was controlled via a Harvard syringe pump and was administered over a 1-2.5 min period. […] Administration via IV and SC delivery was performed as controls.

[7] = Bolus ID delivery of GCSF to Yucatan minipigs, plasma GCSF by ELISA; format: in vivo; conditions: bolus ID relative to SC
Description: as §1

[8] = bolus 10 U, 100 μL, SS3_34 array vs SC needle
[9] = 4 hour infusion, 0.64 mg/mL at 75 μL/hr

## Hoechst regular insulin: regular insulin that maintains the native human insulin protein structure
[1]; bolus 5 U
  PK profiles for regular and fast-acting insulin by the ID route: essentially identical
  uptake by ID route compared with Lispro given by the traditional SC route: faster uptake

## Lantus
[1]; bolus 10 U dose, 100 μL
  "burst" immediately after the ID insulin delivery, relative to SC: slightly higher

## Lispro
Blood glucose [2]
  blood glucose drop: improved relative to conventional SC infusion
Blood glucose [3]
  decrease in blood glucose (BG), ID vs SC: faster and greater changes in BG
[4]; ID infusion, 2 U/hr for 4 hr
  lag time prior to absorption (tlag): 0.88 min
  rate of uptake from the administration site, ka: 0.0666 min⁻¹
[4]; ID relative to SC infusion
  bioavailability, ID relative to SC administration: approximately 1.3 fold
  increase of rate of uptake from the administration site, ID vs SC: approximately 3 fold
[4]; SC infusion
  lag time prior to absorption (tlag): 13.6 min
  rate of uptake from the administration site, ka: 0.0225 min⁻¹
[1]; bolus 5 U
  PK profiles for regular and fast-acting insulin by the ID route: essentially identical
  uptake by ID route compared with Lispro given by the traditional SC route: faster uptake
[1]; bolus 5 U, needle lengths 1, 2 and 3 mm
  PK profile as microneedle length is increased: more closely resemble SC administration
[1]; [8]
  maximum concentration obtained (Cmax), ID vs SC: higher
  time to maximum concentration (Tmax), ID vs SC: shorter

## PTH: peptide drug entity: human parathyroid hormone 1-34
[5]; 2 hour clearance after 4 hour infusion
  plasma level following termination of infusion, ID: rapid decrease
[5]; [9]
  area under the curve (AUC) of weight normalized plasma level, ID vs SC: larger area under the curve
  peak values at earlier sampling timepoints (15 and 30 min), ID vs SC: higher peak values

B1: GCSF: human granulocyte colony stimulating factor (GCSF) (Neupogen) (protein, chains of the INN, looked up)
chain: MTPLGPASSLPQSFLLKCLEQVRKIQGDGAALQEKLCATYKLCHPEELVLLGHSLGIPWAPLSSCPSQALQLAGCLSQLHSGLFLYQGLLQALEGISPELGPTLDTLQLDVADFATTIWQQMEELGMAPALQPTQGAMPAFASAFQRRAGGVLVASHLQSFLEVSYRVLRHLAQP
[6]
  white blood cell expansion (PD outcome): approximately equal PD outcomes
[7]
  bioavailability increase (AUC), ID vs SC: approximately 2 fold
